From publication PMC5243199 (Cancer research, 2016)
Where no end group is shown, it is not given here.

B1: His-menin (natural protein, UniProt O00255-2 1-610, looked up)
chain: MGLKAAQKTLFPLRSIDDVVRLFAAELGREEPDLVLLSLVLGFVEHFLAVNRVIPTNVPELTFQPSPAPDPPGGLTYFPVADLSIIAALYARFTAQIRGAVDLSLYPREGGVSSRELVKKVSDVIWNSLSRSYFKDRAHIQSLFSFITGTKLDSSGVAFAVVGACQALGLRDVHLALSEDHAWVVFGPNGEQTAEVTWHGKGNEDRRGQTVNAGVAERSWLYLKGSYMRCDRKMEVAFMVCAINPSIDLHTDSLELLQLQQKLLWLLYDLGHLERYPMALGNLADLEELEPTPGRPDPLTLYHKGIASAKTYYRDEHIYPYMYLAGYHCRNRNVREALQAWADTATVIQDYNYCREDEEIYKEFFEVANDVIPNLLKEAASLLEAGEERPGEQSQGTQSQGSALQDPECFAHLLRFYDGICKWEEGSPTPVLHVGWATFLVQSLGRFEGQVRQKVRIVSREAEAAEAEEPWGEEAREGRRRGPRRESKPEEPPPPKKPALDKGLGTGQGAVSGPPRKPPGTVAGTARGPEGGSTAQVPAPTASPPPEGPVLTFQSEKMKGMKELLVATKINSSAIKLQLTAQSQVQMKKQKVSTPSDYTLSFLKRQRKGL
B2: His-Daxx (183–260) (domain or fragment, UniProt Q9UER7 183-260, looked up)
chain: GSRRQIQRLEQLLALYVAEIRRLQEKELDLSELDDPDSAYLQEARLKRKLIRLFGRLCELKDCSSLTGRVIEQRIPYR

Experiments:
GST-Daxx = GST-Daxx (UniProt Q9UER7 1-740); experiment: pull-down
GST-Daxx, sequence (Q9UER7 whole entry): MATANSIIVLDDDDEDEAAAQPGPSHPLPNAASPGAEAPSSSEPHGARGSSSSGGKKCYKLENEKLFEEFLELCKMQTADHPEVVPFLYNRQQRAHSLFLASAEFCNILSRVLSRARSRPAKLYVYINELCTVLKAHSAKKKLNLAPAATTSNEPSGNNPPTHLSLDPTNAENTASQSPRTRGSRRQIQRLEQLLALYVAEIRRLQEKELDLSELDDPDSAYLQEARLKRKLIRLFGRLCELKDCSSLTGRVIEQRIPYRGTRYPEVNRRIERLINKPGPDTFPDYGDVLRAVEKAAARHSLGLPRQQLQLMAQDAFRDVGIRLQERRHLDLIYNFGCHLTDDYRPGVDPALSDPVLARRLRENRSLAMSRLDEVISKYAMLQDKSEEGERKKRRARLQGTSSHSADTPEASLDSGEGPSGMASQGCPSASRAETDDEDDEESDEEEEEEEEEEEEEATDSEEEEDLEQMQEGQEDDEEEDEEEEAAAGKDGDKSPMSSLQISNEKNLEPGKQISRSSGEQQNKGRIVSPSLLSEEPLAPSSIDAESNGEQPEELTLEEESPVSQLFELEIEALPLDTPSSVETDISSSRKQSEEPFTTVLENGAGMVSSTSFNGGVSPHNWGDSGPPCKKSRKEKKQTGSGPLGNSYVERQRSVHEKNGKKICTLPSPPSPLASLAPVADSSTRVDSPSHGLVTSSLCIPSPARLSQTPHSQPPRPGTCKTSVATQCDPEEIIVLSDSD

His-Daxx (183–398) = His-Daxx (183–398) (UniProt Q9UER7 183-398); experiment: pull-down
His-menin = biological target: B1; experiment: co-IP

B1: binds (GST-Daxx).

GTCKWEEGSPTPVLHVGWATQSE (also: biotinylated) [biotinylated menin peptide GTCKWEEGSPTPVLHVGWATQSE]: binds (His-Daxx (183–398)).

B2: binds (His-menin).
